US10189900B2, “Method for screening for autophagy activator or inhibitor” (KOREA FOOD RESEARCH INSTITUTE, priority 2014, dated 2019)

Legend:
Ser30 of Beclin 1 = assay: Beclin 1 Ser30 phosphorylation after compound treatment (immunoprecipitation of endogenous Beclin 1, phospho-Ser30 antibody); format: cell-based; conditions: HEK293T cells treated for 0, 15, 30, 60 and 120 min; endogenous Beclin 1 isolated by immunoprecipitation; rabbit phospho-Ser30 antibody
Protocol: For co-immunoprecipitation, cell extracts were prepared in a buffer containing 40 mM HEPES, pH 7.4, 120 mM NaCl, 1 mM EDTA, 50 mM NaF, 1.5 mM Na3VO4, 10 mM Mb-glycerophosphate, 1% triton X-100, and protease inhibitor (Roche). Immunoprecipitated proteins were washed four times with a lysis buffer, and loaded onto 8% Tris-glycine gels. The resultant proteins were transferred onto polyvinylidene difluoride (PVDF) membranes (Bio-Rad, USA), and detected with western blotting detection reagents (Perkin Elmer, USA).
(§1) HEK293T cells were treated with rapamycin for predetermined periods of time (0, 15, 30, 60, and 120 min). Endogenous Beclin 1 was isolated by immunoprecipitation. The phosphorylation of Ser30 was analyzed using rabbit antibodies developed in the present invention. It was verified that Ser30 of Beclin 1 was phosphorylated by rapamycin (FIG. 5). Rapamycin increases the activity of ULK1.
as §1, with “torin” for “rapamycin”, “6).” for “5). Rapamycin increases the activity of ULK1.”

[1] = molecular target: myc-tagged Beclin 1, Q14457
[2] = molecular target: Recombinant Beclin 1 isolated from E. coli, Q14457
Recombinant Beclin 1 isolated from E. coli, Q14457, sequence (Q14457 whole entry, looked up): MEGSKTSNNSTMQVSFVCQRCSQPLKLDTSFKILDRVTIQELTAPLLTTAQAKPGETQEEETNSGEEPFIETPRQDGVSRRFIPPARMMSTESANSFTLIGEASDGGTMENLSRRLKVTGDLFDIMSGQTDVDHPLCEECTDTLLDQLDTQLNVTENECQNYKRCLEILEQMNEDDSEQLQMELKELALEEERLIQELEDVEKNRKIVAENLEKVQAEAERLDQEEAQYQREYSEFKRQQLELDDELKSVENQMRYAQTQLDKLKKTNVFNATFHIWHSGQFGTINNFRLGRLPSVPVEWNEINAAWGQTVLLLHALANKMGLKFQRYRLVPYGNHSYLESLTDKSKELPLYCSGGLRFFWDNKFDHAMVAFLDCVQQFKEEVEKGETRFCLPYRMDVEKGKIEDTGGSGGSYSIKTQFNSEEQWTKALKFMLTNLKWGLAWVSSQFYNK

myc-tagged Beclin 1, Q14457, sequence (Q14457 whole entry, looked up): as above

## torin
Ser30 of Beclin 1
  phosphorylation of Ser30 of Beclin 1: phosphorylated

B1: HA-tagged ULK1 wild type (protein)
chain: MEPGRGGTETVGKFEFSRKDLIGHGAFAVVFKGRHREKHDLEVAVKCINKKNLAKSQTLLGKEIKILKELKHENIVALYDFQEMANSVYLVMEYCNGGDLADYLHAMRTLSEDTIRLFLQQIAGAMRLLHSKGIIHRDLKPQNILLSNPAGRRANPNSIRVKIADFGFARYLQSNMMAATLCGSPMYMAPEVIMSQHYDGKADLWSIGTIVYQCLTGKAPFQASSPQDLRLFYEKNKTLVPTIPRETSAPLRQLLLALLQRNHKDRMDFDEFFHHPFLDASPSVRKSPPVPVPSYPSSGSGSSSSSSSTSHLASPPSLGEMQQLQKTLASPADTAGFLHSSRDSGGSKDSSCDTDDFVMVPAQFPGDLVAEAPSAKPPPDSLMCSGSSLVASAGLESHGRTPSPSPPCSSSPSPSGRAGPFSSSRCGASVPIPVPTQVQNYQRIERNLQSPTQFQTPRSSAIRRSGSTSPLGFARASPSPPAHAEHGGVLARKMSLGGGRPYTPSPQVGTIPERPGWSGTPSPQGAEMRGGRSPRPGSSAPEHSPRTSGLGCRLHSAPNLSDLHVVRPKLPKPPTDPLGAVFSPPQASPPQPSHGLQSCRNLRGSPKLPDFLQRNPLPPILGSPTKAVPSFDFPKTPSSQNLLALLARQGVVMTPPRNRTLPDLSEVGPFHGQPLGPGLRPGEDPKGPFGRSFSTSRLTDLLLKAAFGTQAPDPGSTESLQEKPMEIAPSAGFGGSLHPGARAGGTSSPSPVVFTVGSPPSGSTPPQGPRTRMFSAGPTGSASSSARHLVPGPCSEAPAPELPAPGHGCSFADPITANLEGAVTFEAPDLPEETLMEQEHTEILRGLRFTLLFVQHVLEIAALKGSASEAAGGPEYQLQESVVADQISLLSREWGFAEQLVLYLKVAELLSSGLQSAIDQIRAGKLCLSSTVKQVVRRLNELYKASVVSCQGLSLRLQRFFLDKQRLLDRIHSITAERLIFSHAVQMVQSAALDEMFQHREGCVPRYHKALLLLEGLQHMLSDQADIENVTKCKLCIERRLSALLTGICA
[1]
  band shift on SDS-PAGE (western blot): Beclin 1 co-expressed together with ULK1 showed band shift

B2: HA-tagged ULK1 M92A KD (kinase dead) mutant (protein)
chain: MEPGRGGTETVGKFEFSRKDLIGHGAFAVVFKGRHREKHDLEVAVKCINKKNLAKSQTLLGKEIKILKELKHENIVALYDFQEMANSVYLVAEYCNGGDLADYLHAMRTLSEDTIRLFLQQIAGAMRLLHSKGIIHRDLKPQNILLSNPAGRRANPNSIRVKIADFGFARYLQSNMMAATLCGSPMYMAPEVIMSQHYDGKADLWSIGTIVYQCLTGKAPFQASSPQDLRLFYEKNKTLVPTIPRETSAPLRQLLLALLQRNHKDRMDFDEFFHHPFLDASPSVRKSPPVPVPSYPSSGSGSSSSSSSTSHLASPPSLGEMQQLQKTLASPADTAGFLHSSRDSGGSKDSSCDTDDFVMVPAQFPGDLVAEAPSAKPPPDSLMCSGSSLVASAGLESHGRTPSPSPPCSSSPSPSGRAGPFSSSRCGASVPIPVPTQVQNYQRIERNLQSPTQFQTPRSSAIRRSGSTSPLGFARASPSPPAHAEHGGVLARKMSLGGGRPYTPSPQVGTIPERPGWSGTPSPQGAEMRGGRSPRPGSSAPEHSPRTSGLGCRLHSAPNLSDLHVVRPKLPKPPTDPLGAVFSPPQASPPQPSHGLQSCRNLRGSPKLPDFLQRNPLPPILGSPTKAVPSFDFPKTPSSQNLLALLARQGVVMTPPRNRTLPDLSEVGPFHGQPLGPGLRPGEDPKGPFGRSFSTSRLTDLLLKAAFGTQAPDPGSTESLQEKPMEIAPSAGFGGSLHPGARAGGTSSPSPVVFTVGSPPSGSTPPQGPRTRMFSAGPTGSASSSARHLVPGPCSEAPAPELPAPGHGCSFADPITANLEGAVTFEAPDLPEETLMEQEHTEILRGLRFTLLFVQHVLEIAALKGSASEAAGGPEYQLQESVVADQISLLSREWGFAEQLVLYLKVAELLSSGLQSAIDQIRAGKLCLSSTVKQVVRRLNELYKASVVSCQGLSLRLQRFFLDKQRLLDRIHSITAERLIFSHAVQMVQSAALDEMFQHREGCVPRYHKALLLLEGLQHMLSDQADIENVTKCKLCIERRLSALLTGICA
[1]
  band shift on SDS-PAGE (western blot): Beclin 1 co-expressed together with ULK1 M92A KD showed no band shift

B3: myc-tagged ULK1 wild type (protein)
chain: MEPGRGGTETVGKFEFSRKDLIGHGAFAVVFKGRHREKHDLEVAVKCINKKNLAKSQTLLGKEIKILKELKHENIVALYDFQEMANSVYLVMEYCNGGDLADYLHAMRTLSEDTIRLFLQQIAGAMRLLHSKGIIHRDLKPQNILLSNPAGRRANPNSIRVKIADFGFARYLQSNMMAATLCGSPMYMAPEVIMSQHYDGKADLWSIGTIVYQCLTGKAPFQASSPQDLRLFYEKNKTLVPTIPRETSAPLRQLLLALLQRNHKDRMDFDEFFHHPFLDASPSVRKSPPVPVPSYPSSGSGSSSSSSSTSHLASPPSLGEMQQLQKTLASPADTAGFLHSSRDSGGSKDSSCDTDDFVMVPAQFPGDLVAEAPSAKPPPDSLMCSGSSLVASAGLESHGRTPSPSPPCSSSPSPSGRAGPFSSSRCGASVPIPVPTQVQNYQRIERNLQSPTQFQTPRSSAIRRSGSTSPLGFARASPSPPAHAEHGGVLARKMSLGGGRPYTPSPQVGTIPERPGWSGTPSPQGAEMRGGRSPRPGSSAPEHSPRTSGLGCRLHSAPNLSDLHVVRPKLPKPPTDPLGAVFSPPQASPPQPSHGLQSCRNLRGSPKLPDFLQRNPLPPILGSPTKAVPSFDFPKTPSSQNLLALLARQGVVMTPPRNRTLPDLSEVGPFHGQPLGPGLRPGEDPKGPFGRSFSTSRLTDLLLKAAFGTQAPDPGSTESLQEKPMEIAPSAGFGGSLHPGARAGGTSSPSPVVFTVGSPPSGSTPPQGPRTRMFSAGPTGSASSSARHLVPGPCSEAPAPELPAPGHGCSFADPITANLEGAVTFEAPDLPEETLMEQEHTEILRGLRFTLLFVQHVLEIAALKGSASEAAGGPEYQLQESVVADQISLLSREWGFAEQLVLYLKVAELLSSGLQSAIDQIRAGKLCLSSTVKQVVRRLNELYKASVVSCQGLSLRLQRFFLDKQRLLDRIHSITAERLIFSHAVQMVQSAALDEMFQHREGCVPRYHKALLLLEGLQHMLSDQADIENVTKCKLCIERRLSALLTGICA
[2]
  incorporation of 32P into Beclin 1 (in vitro kinase reaction, autoradiogram): The ULK1 wild type phosphorylates Beclin 1

B4: myc-tagged ULK1 KD (M92) mutant (protein)
chain: MEPGRGGTETVGKFEFSRKDLIGHGAFAVVFKGRHREKHDLEVAVKCINKKNLAKSQTLLGKEIKILKELKHENIVALYDFQEMANSVYLVAEYCNGGDLADYLHAMRTLSEDTIRLFLQQIAGAMRLLHSKGIIHRDLKPQNILLSNPAGRRANPNSIRVKIADFGFARYLQSNMMAATLCGSPMYMAPEVIMSQHYDGKADLWSIGTIVYQCLTGKAPFQASSPQDLRLFYEKNKTLVPTIPRETSAPLRQLLLALLQRNHKDRMDFDEFFHHPFLDASPSVRKSPPVPVPSYPSSGSGSSSSSSSTSHLASPPSLGEMQQLQKTLASPADTAGFLHSSRDSGGSKDSSCDTDDFVMVPAQFPGDLVAEAPSAKPPPDSLMCSGSSLVASAGLESHGRTPSPSPPCSSSPSPSGRAGPFSSSRCGASVPIPVPTQVQNYQRIERNLQSPTQFQTPRSSAIRRSGSTSPLGFARASPSPPAHAEHGGVLARKMSLGGGRPYTPSPQVGTIPERPGWSGTPSPQGAEMRGGRSPRPGSSAPEHSPRTSGLGCRLHSAPNLSDLHVVRPKLPKPPTDPLGAVFSPPQASPPQPSHGLQSCRNLRGSPKLPDFLQRNPLPPILGSPTKAVPSFDFPKTPSSQNLLALLARQGVVMTPPRNRTLPDLSEVGPFHGQPLGPGLRPGEDPKGPFGRSFSTSRLTDLLLKAAFGTQAPDPGSTESLQEKPMEIAPSAGFGGSLHPGARAGGTSSPSPVVFTVGSPPSGSTPPQGPRTRMFSAGPTGSASSSARHLVPGPCSEAPAPELPAPGHGCSFADPITANLEGAVTFEAPDLPEETLMEQEHTEILRGLRFTLLFVQHVLEIAALKGSASEAAGGPEYQLQESVVADQISLLSREWGFAEQLVLYLKVAELLSSGLQSAIDQIRAGKLCLSSTVKQVVRRLNELYKASVVSCQGLSLRLQRFFLDKQRLLDRIHSITAERLIFSHAVQMVQSAALDEMFQHREGCVPRYHKALLLLEGLQHMLSDQADIENVTKCKLCIERRLSALLTGICA
[2]
  incorporation of 32P into Beclin 1 (in vitro kinase reaction, autoradiogram): KD mutant-added Beclin 1 was not phosphorylated
